Experimental data: the supplement of paper PMC10126150
± gives the standard deviation of the averaged measurements.

Test system: ATP
Assay: switch fluorescence ratio, 500 uM ATP over buffer (Cy3 cluster intensity, sum of 5 cycles each) (fold (ratio)); higher = stronger signal-on switching upon ATP binding; sequences stand for … in TCGTCGGCAGCGTCAGATGTGTATAAGAGACAGTTTTTTTTTTTTTTTTTTTTTTTTT…TC
Details: aptamer strand: ATP DNA aptamer (quencher-CACCTGGGGGAGTATTGCGGAGGAAGG + anchor), 100 nM annealed; ATP concentration: 500 uM
In short: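 Five buffer/ATP imaging cycles were run on Cy3-labelled switching-strand clusters on a modified Illumina MiSeq flow-cell, with NaOH stripping and re-annealing between cycles. In each cycle, clusters annealed to 100 nM quencher-labelled ATP aptamer were imaged in selection buffer, then after 15 min with 500 uM ATP at 22 °C. Per cluster, the fluorescence ratio is summed target-cycle over summed buffer-cycle Cy3 intensity, averaged per switch-domain sequence. Only clusters within 100-1000 RFU were kept.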
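Further: ATP exposure 15 min at 22 °C before imaging.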

Sequence: CCTATTATTT
- switch fluorescence ratio: 1 ± 0.051

Sequence: CCTCATTGAC
- switch fluorescence ratio: 2.24 ± 0.15

Sequence: CCTCGAGGGT
- switch fluorescence ratio: 1.09 ± 0.07

Sequence: CCTCGATTCA
- switch fluorescence ratio: 1.03 ± 0.017

Sequence: CCTCTACTGG
- switch fluorescence ratio: 1.12 ± 0.042

Sequence: CCTCTGGGGA
- switch fluorescence ratio: 1.82 ± 0.94

Sequence: CCTGAAAGGT
- switch fluorescence ratio: 1.003 ± 0.0079

Sequence: CCTGACAGCG
- switch fluorescence ratio: 1.012 ± 0.0083

Sequence: CCTGAGAGAG
- switch fluorescence ratio: 1.034 ± 0.0052

Sequence: CCTGAGGAGG
- switch fluorescence ratio: 0.997 ± 0.014

Sequence: CCTGATCGAT
- switch fluorescence ratio: 1.01 ± 0.02

Sequence: CCTGATGGGG
- switch fluorescence ratio: 1.01 ± 0.017

Sequence: CCTGATTGAA
- switch fluorescence ratio: 0.991 ± 0.0088

Sequence: CCTGCATTTT
- switch fluorescence ratio: 1.3 ± 0.33

Sequence: CCTGCCAAGA
- switch fluorescence ratio: 2 ± 1.4

Sequence: CCTGCGGGG
- switch fluorescence ratio: 1.11 ± 0.022

Sequence: CCTGCGTAAG
- switch fluorescence ratio: 2.29 ± 0.11

Sequence: CCTGCTAAGT
- switch fluorescence ratio: 1 ± 0.058

Sequence: CCTGGAAATT
- switch fluorescence ratio: 1.02 ± 0.023

Sequence: CCTGGATATT
- switch fluorescence ratio: 0.997 ± 0.013

Sequence: CCTGGGCCCA
- switch fluorescence ratio: 1.09 ± 0.15

Sequence: CCTGGGTGGG
- switch fluorescence ratio: 1.12 ± 0.065

Sequence: CCTGGGTTTC
- switch fluorescence ratio: 1.008 ± 0.0052

Sequence: CCTGGGTTTT
- switch fluorescence ratio: 1.06 ± 0.05

Sequence: CCTGGTAAGT
- switch fluorescence ratio: 1.04 ± 0.051

Sequence: CCTGGTGGGA
- switch fluorescence ratio: 0.999 ± 0.014

Sequence: CCTGTCATGT
- switch fluorescence ratio: 1.02 ± 0.013

Sequence: CCTGTGAGGT
- switch fluorescence ratio: 1.01 ± 0.045

Sequence: CCTGTGTTCG
- switch fluorescence ratio: 1 ± 0.025

Sequence: CCTGTTAGCT
- switch fluorescence ratio: 1.15 ± 0.076

Sequence: CCTGTTTTAT
- switch fluorescence ratio: 0.9953 ± 0.0051

Sequence: CCTGTTTTCG
- switch fluorescence ratio: 1.06 ± 0.05

Sequence: CCTGTTTTTA
- switch fluorescence ratio: 0.986 ± 0.024

Sequence: CCTTACAGCT
- switch fluorescence ratio: 1.2 ± 0.044

Sequence: CCTTAGGGGC
- switch fluorescence ratio: 1.03 ± 0.026

Sequence: CCTTATAAA
- switch fluorescence ratio: 1 ± 0.018

Sequence: CCTTATTAGT
- switch fluorescence ratio: 0.984 ± 0.012

Sequence: CCTTATTGGG
- switch fluorescence ratio: 1.05 ± 0.037

Sequence: CCTTCTTGGG
- switch fluorescence ratio: 1.015 ± 0.0033

Sequence: CCTTGCCGTT
- switch fluorescence ratio: 0.99 ± 0.017

Sequence: CCTTGGGTAT
- switch fluorescence ratio: 1.01 ± 0.034

Sequence: CCTTGGGTTG
- switch fluorescence ratio: 1.03 ± 0.032

Sequence: CCTTTAAAAT
- switch fluorescence ratio: 1.4 ± 0.41

Sequence: CCTTTGAGAT
- switch fluorescence ratio: 1.03 ± 0.022

Sequence: CCTTTGGGGT
- switch fluorescence ratio: 1.69 ± 1.2

Sequence: CCTTTGTTTT
- switch fluorescence ratio: 1.05 ± 0.091

Sequence: CCTTTTAGGT
- switch fluorescence ratio: 0.9846 ± 0.0043

Sequence: CCTTTTCGAG
- switch fluorescence ratio: 1.037 ± 0.0025

Sequence: CCTTTTCGCG
- switch fluorescence ratio: 1.106 ± 0.0051

Sequence: CCTTTTGGAT
- switch fluorescence ratio: 1.07 ± 0.073

Sequence: CCTTTTGGCT
- switch fluorescence ratio: 0.964 ± 0.014

Sequence: CGAAAAGAGG
- switch fluorescence ratio: 1.1 ± 0.26

Sequence: CGAAAAGGGA
- switch fluorescence ratio: 1.01 ± 0.029

Sequence: CGAAAATGCC
- switch fluorescence ratio: 1.02 ± 0.023

Sequence: CGAAAATTCA
- switch fluorescence ratio: 1.02 ± 0.0077

Sequence: CGAAAATTCG
- switch fluorescence ratio: 1.03 ± 0.048

Sequence: CGAAACCGAC
- switch fluorescence ratio: 2.17 ± 1.2

Sequence: CGAAAGGCTA
- switch fluorescence ratio: 1.15 ± 0.18

Sequence: CGAAAGGGGA
- switch fluorescence ratio: 1.03 ± 0.018

Sequence: CGAAATATCT
- switch fluorescence ratio: 1.04 ± 0.058

Sequence: CGAAATTGTG
- switch fluorescence ratio: 1.02 ± 0.022

Sequence: CGAACTGAAG
- switch fluorescence ratio: 0.975 ± 0.026

Sequence: CGAACTTGTT
- switch fluorescence ratio: 1.01 ± 0.04

Sequence: CGAAGACTGC
- switch fluorescence ratio: 1.19 ± 0.12

Sequence: CGAAGAGGAG
- switch fluorescence ratio: 0.981 ± 0.011

Sequence: CGAAGCATTT
- switch fluorescence ratio: 3.73 ± 0.14

Sequence: CGAAGGGCG
- switch fluorescence ratio: 1.03 ± 0.029

Sequence: CGAAGTACCG
- switch fluorescence ratio: 1.08 ± 0.011

Sequence: CGAAGTGGGG
- switch fluorescence ratio: 1.01 ± 0.026

Sequence: CGAAGTGGTC
- switch fluorescence ratio: 0.995 ± 0.059

Sequence: CGAAGTGTTT
- switch fluorescence ratio: 1 ± 0.02

Sequence: CGAAGTTTGC
- switch fluorescence ratio: 1.23 ± 0.33

Sequence: CGAATAGCTT
- switch fluorescence ratio: 1.01 ± 0.062

Sequence: CGAATGCGTT
- switch fluorescence ratio: 0.973 ± 0.021

Sequence: CGAATGGGGT
- switch fluorescence ratio: 0.985 ± 0.039

Sequence: CGAATGGTAA
- switch fluorescence ratio: 1.05 ± 0.051

Sequence: CGAATTAGTT
- switch fluorescence ratio: 0.978 ± 0.045

Sequence: CGAATTTAAG
- switch fluorescence ratio: 1.009 ± 0.0062

Sequence: CGAATTTTAT
- switch fluorescence ratio: 0.976 ± 0.039

Sequence: CGAATTTTTT
- switch fluorescence ratio: 0.9539 ± 0.0064

Sequence: CGACACCGTT
- switch fluorescence ratio: 1.03 ± 0.056

Sequence: CGACACTATT
- switch fluorescence ratio: 1.06 ± 0.034

Sequence: CGACAGGTTC
- switch fluorescence ratio: 1.0621 ± 0.00069

Sequence: CGACCATAGA
- switch fluorescence ratio: 1.07 ± 0.045

Sequence: CGACCATAGC
- switch fluorescence ratio: 1.84 ± 0.19

Sequence: CGACCGGGGA
- switch fluorescence ratio: 1.04 ± 0.011

Sequence: CGACCGTAAA
- switch fluorescence ratio: 1.5 ± 0.14

Sequence: CGACCTTGCT
- switch fluorescence ratio: 1.55 ± 0.26

Sequence: CGACGACTGG
- switch fluorescence ratio: 1.01 ± 0.017

Sequence: CGACGGGGGG
- switch fluorescence ratio: 1 ± 0.017

Sequence: CGACGGTTGG
- switch fluorescence ratio: 0.967 ± 0.013

Sequence: CGACTATTTT
- switch fluorescence ratio: 1.01 ± 0.045

Sequence: CGACTTGGTA
- switch fluorescence ratio: 0.9766 ± 0.0011

Sequence: CGAGAATGTT
- switch fluorescence ratio: 1.07 ± 0.1

Sequence: CGAGAGGAAA
- switch fluorescence ratio: 0.9804 ± 0.0046

Sequence: CGAGAGGAGC
- switch fluorescence ratio: 0.998 ± 0.073

Sequence: CGAGAGGGAG
- switch fluorescence ratio: 1.004 ± 0.0015

Sequence: CGAGAGGGGT
- switch fluorescence ratio: 1.02 ± 0.044

Sequence: CGAGAGTGCG
- switch fluorescence ratio: 0.962 ± 0.023

Sequence: CGAGAGTTTT
- switch fluorescence ratio: 0.985 ± 0.032
